“Also recorded” adds a separate entry of the source.
What was measured:
[1] = target: T1, GSK3β (Homo sapiens, UniProt P49841); test: GSK3β in vitro kinase assay (β-catenin/axin phosphorylation, Y216 autophosphorylation); type: biochemical; conditions: for inhibition of GSK3β activity by DISC1 fragments: no single concentration, dose dependence, rank
T1 construct: GST; purchased Active Motif (Carlsbad, Calif.)
Description: • Mice. Swiss Webster pregnant female mice were purchased from Taconic (Hudson, N.Y.). • Cell Culture. AHPs were kindly provided by Dr. Gage (Lie, D. C. et al. Wnt signaling to regulates adult hippocampal neurogenesis. Nature 437, 1370-5 (2005)) and cultured under conditions described previously (Palmer, T. D., Takahashi, J. & Gage, F. H. The adult rat hippocampus contains primordial neural stem cells. Mol Cell Neurosci 8, 389-404 (1997)). Primary neural progenitors were isolated from E14 mouse embryos and cultured as described previously (Sanada, K. & Tsai, L. H. G protein betagamma subunits and AGS3 control spindle orientation and asymmetric cell fate of cerebral cortical progenitors. Cell 122, 119-31 (2005)). N2a and 293T cells were cultured in DMEM medium containing 10% FBS, L-glutamine, and penicillin/streptomycin. Wnt3a expressing L cells and untransfected L cells were obtained from ATCC (Manassas, Va.). Wnt3a conditional medium was produced according to the ATCC protocol. To induce AHP differentiation, FGF2 was removed from the culture medium and 1 μM retinoic acid/1% FBS was added to the medium for 4 days. • Reagents. Recombinant Wnt3a protein was obtained from Chemicon (Rosemont, Ill.). FGF2 was obtained from PeproTech (Rocky Hill, N.J.). Recombinant GST-GSK3β was obtained from Active Motif (Carlsbad, Calif.). Recombinant GST-β-catenin and GST-axin were obtained from Millipore (Billerica, Mass.). The GSK313 inhibitor, SB-216763, AR-A104418 and His-GSK3β, were obtained from Sigma-Aldrich (Sigma-Aldrich, St. Louis, Mo.). L803-MTS was obtained from Calbiochem (San Diego, Calif.). GST-AKT1 was obtained from Cell Signaling (Beverly, Mass.). GST-CASK-1 (CASK fragment from 316-415aa), GST-CASK-2 (CASK fragment from 777-974aa), and GST-p25 proteins were kindly provided by Dr. B. A. Samuels. Mouse DISC1 peptidel (40-78aa: GYMRSTAGSG IGFLSPAVGMPHPSSAG LTGQQSQHSQS; SEQ ID NO: 1) and Mouse DISC1 peptide 2 (195-238aa, […] GERGEAEGCLPSREAE; SEQ ID NO: 2) were synthesized by Chi Scientific (Maynard, Mass.). • Antibodies. The primary antibodies used in this study were the following: rabbit anti-DISC1 C-terminal antibody, mouse and rabbit anti-GFP antibodies (Invitrogen, Carlsbad, Calif.); affinity purified rabbit anti-DISC1 antibody (Novus, Littleton, Colo.) for immunohistochemistry; mouse anti-FLAG and mouse anti-Actin antibody; mouse anti-GSK3β antibody, mouse anti-β-catenin antibody, mouse anti-pY216 GSK3β antibody, and mouse anti-nestin antibody (BD Biosciences, San Diego, Calif.); rabbit anti-[…] β-catenin antibody, rabbit anti-pS9 GSK3β antibody, and mouse anti-cyclin to D1 antibody (Cell Signaling); mouse anti-Dv12 antibody, mouse anti-HA antibody, mouse anti-GST antibody, mouse anti-ubiquitin antibody, and rabbit anti-β-catenin antibody (Santa Cruz, Santa Cruz, Calif.); mouse Tuj-1 antibody (BABCO, Harrisburg, Pa.); mouse anti-BrdU antibody (DakoCytomation, Glostrup, Denmark); guinea pig anti-doublecortin antibody (Chemicon, Rosemont, Ill.); chicken anti-GFP antibody (Ayes Labs, Tigard, Oreg.); rabbit anti-pS10 Histone H3 antibody (Upstate, Lake Placid, N.Y.). • Constructs. The sequences for shRNAs targeting DISC1 are as follows: control shRNA: 5′-CGGCTGAAACAAGAGTTGG-3′ (SEQ ID NO:3); DISC1 shRNA-1: 5′-GGCAAACACTGTGA AGT GC-3′ (SEQ ID NO:4); DISC1 shRNA-2: 5′-[…]-3′ (SEQ ID NO:5)(Kamiya A. et al. A schizophrenia-associated mutation of DISC1 perturbs cerebral cortex development. Nat. Cell Biol 7, 1167-78 (2005)). DISC1 shRNA-1 recognizes both rat and mouse DISC1. […]

[2] = target: T2, His-GSK3β (Homo sapiens, UniProt P49841); test: In vitro association (GST pull-down) with purified His-GSK3β; type: binding; conditions: GST-tagged DISC1 fragments, in vitro association assay
T2 construct: purchased Sigma-Aldrich (St. Louis, Mo.)
Description: (§1) • Mice. Swiss Webster pregnant female mice were purchased from Taconic (Hudson, N.Y.). • Cell Culture. AHPs were kindly provided by Dr. Gage (Lie, D. C. et al. Wnt signaling to regulates adult hippocampal neurogenesis. Nature 437, 1370-5 (2005)) and cultured under conditions described previously (Palmer, T. D., Takahashi, J. & Gage, F. H. The adult rat hippocampus contains primordial neural stem cells. Mol Cell Neurosci 8, 389-404 (1997)). Primary neural progenitors were isolated from E14 mouse embryos and cultured as described previously (Sanada, K. & Tsai, L. H. G protein betagamma subunits and AGS3 control spindle orientation and asymmetric cell fate of cerebral cortical progenitors. Cell 122, 119-31 (2005)). N2a and 293T cells were cultured in DMEM medium containing 10% FBS, L-glutamine, and penicillin/streptomycin. Wnt3a expressing L cells and untransfected L cells were obtained from ATCC (Manassas, Va.). Wnt3a conditional medium was produced according to the ATCC protocol. To induce AHP differentiation, FGF2 was removed from the culture medium and 1 μM retinoic acid/1% FBS was added to the medium for 4 days. • Reagents. Recombinant Wnt3a protein was obtained from Chemicon (Rosemont, Ill.). FGF2 was obtained from PeproTech (Rocky Hill, N.J.). Recombinant GST-GSK3β was obtained from Active Motif (Carlsbad, Calif.). […]

[3] = tested on: adult hippocampal progenitor (AHP) cells; test: AHP cell proliferation, BrdU labeling and mitotic index; type: cell-based; conditions: Wnt3a 200 ng/ml
Description: as §1

T1 sequence (P49841 whole entry, the tested form may be a part): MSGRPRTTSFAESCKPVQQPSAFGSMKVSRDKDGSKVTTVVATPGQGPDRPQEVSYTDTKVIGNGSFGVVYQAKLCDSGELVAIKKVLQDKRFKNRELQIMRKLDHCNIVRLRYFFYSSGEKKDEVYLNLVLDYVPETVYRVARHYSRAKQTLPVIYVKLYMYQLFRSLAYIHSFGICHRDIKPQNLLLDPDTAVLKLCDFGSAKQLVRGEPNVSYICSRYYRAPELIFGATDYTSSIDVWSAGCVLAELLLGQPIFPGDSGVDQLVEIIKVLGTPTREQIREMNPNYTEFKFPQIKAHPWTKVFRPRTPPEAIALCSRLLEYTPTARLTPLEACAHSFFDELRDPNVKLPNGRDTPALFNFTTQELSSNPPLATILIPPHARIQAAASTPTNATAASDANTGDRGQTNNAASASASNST
T2 sequence (P49841 whole entry, the tested form may be a part): as above

B1: DISC1 fragment 1-220: GST-tagged mouse DISC1 protein fragment, amino acids 1-220 (protein)
chain: MQGGGPRGAPIHSPSHGADSGHGLPPAVAPQRRRLTRRPGYMRSTAGSGIGFLSPAVGMPHPSSAGLTGQQSQHSQSKAGQCGLDPGSHCQASLVGKPFLKSSLVPAVASEGHLHPAQRSMRKRPVHFAVHSKNDSRQSERLTGSFKPGDSGFWQELLSSDSFKSLAPSLDAPWNKGSRGLKTVKPLASPALNGPADIASLPGFQDTFTSSFSFIQLSLG
modifications: left off: a dimerising Fc or GST
inhibition of β-catenin, axin and GSK3β phosphorylation ([1]; GST fusion proteins at 0.5 μM): potently inhibited β-catenin, axin and GSK3β phosphorylation
inhibition of GSK3β Y216 phosphorylation ([1]; at 0.1 μM): no inhibition
inhibition of GSK3β Y216 phosphorylation ([1]; at 1 μM): plateaued
inhibition of GSK3β activity by DISC1 fragments [1]: able to inhibit GSK3 activity; also recorded: most potent in inhibiting GSK3 activity; also recorded: most potent inhibitory activity on GSK3β; also recorded: dose-dependent
interaction with purified His-GSK3β [2]: strong interactions; also recorded: directly associate with purified GSK3β; also recorded: interacts directly

B2: DISC1 fragment 356-595: GST-tagged mouse DISC1 protein fragment, amino acids 356-595 (protein, UniProt Q811T9 356-595, looked up, fragment)
chain: LKLQKCQEKVVEDGDYDTAETLRQRLEELEQEKGRLSWALPSQQPALRSFLGYLAAQIQVALHGATQRAGSDDPEAPLEGQLRTTAQDSLPASITRRDWLIREKQRLQKEIEALQARMSALEAKEKRLSQELEEQEVLLRWPGCDLMALVAQMSPGQLQEVSKALGETLTSANQAPFQVEPPETLRSLRERTKSLNLAVRELTAQVCSGEKLCSSLRRRLSDLDTRLPALLEAKMLALSG
modifications: GST tag
inhibition of GSK3β autophosphorylation (Y216) ([1]; GST-DISC1 fragments at 2 μM): started to inhibit GSK3β autophosphorylation
inhibition of GSK3β activity by DISC1 fragments [1]: able to inhibit GSK3 activity
interaction with purified His-GSK3β [2]: strong interactions; also recorded: directly associate with purified GSK3β; also recorded: interacts directly

B3: Wnt3a: Recombinant Wnt3a protein obtained from Chemicon (protein, UniProt P56704 19-352, looked up)
Protein Wnt-3a: SYPIWWSLAVGPQYSSLGSQPILCASIPGLVPKQLRFCRNYVEIMPSVAEGIKIGIQECQHQFRGRRWNCTTVHDSLAIFGPVLDKATRESAFVHAIASAGVAFAVTRSCAEGTAAICGCSSRHQGSPGKGWKWGGCSEDIEFGGMVSREFADARENRPDARSAMNRHNNEAGRQAIASHMHLKCKCHGLSGSCEVKTCWWSQPDFRAIGDFLKDKYDSASEMVVEKHRESRGWVETLRPRYTYFKVPTERDLVYYEASPNFCEPNPETGSFGTRDRTCNVSSHGIDGCDLLCCGRGHNARAERRREKCRCVFHWCCYVSCQECTRVYDVHTCK
proliferation of AHPs [3]: significantly stimulated proliferation of AHPs
